{"source": "the nanobody polyreactivity screen of Harvey et al. (2022)", "data": [{"experiment": "yeast display, Sf9 membrane polyspecificity reagent, FACS + sequencing; frameworks hold sequencing errors", "how_it_was_run": "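Synthetic nanobody libraries on Saccharomyces cerevisiae BJ5465 were galactose-induced for 36–48 hours, stained 1 hour at 4 °C with 10% biotinylated, detergent-solubilized Sf9 membrane reagent and enriched on streptavidin microbeads. FACS then separated cells into low and high (top ~1%) gates by anti-HA (expression) and streptavidin (reagent binding) fluorescence. Genes were colony-PCR amplified, MiSeq 2 × 250 sequenced and CDR-length filtered. A clone's polyreactivity label is that of its gate of origin.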", "values": [{"sequence": "QVQIVESGGGLVQAGGSLRLSCAASGRTLYGYAMGWYRQAPGKEREMVASIRSGGSTNYADSVKGRFTISRDNAKNTVYLQMNCLKPEDTAVYYCADDPYYSYGYYHAHGRDVGYWGQGTQVTVSS", "polyreactivity (PSR sort gate)": "low polyreactivity"}, {"sequence": "QVQIVESGGGLVQAGGSLRLSCAASGSIFGTYAMGWYRQAPGKERELVAAITRRGGSTFYADSVKGRFTISRDNAKNTVYLQMNSLKPEDTAVYDCAAPPYYWGQGTQVTVSS", "polyreactivity (PSR sort gate)": "high polyreactivity"}, {"sequence": "QVQIVESGGGLVQAGGSLRLSCAASGSIFPRMAMGWYIQAPGKERELVAAITTGGITNYADSVKGRFTISRDHAKNTVYLQMNSLNPDDTAVYYCAATSWRYQQSTRYKGRRYYSWGQGTQVTVSS", "polyreactivity (PSR sort gate)": "high polyreactivity"}, {"sequence": "QVQIVESGGGLVQAGGSLRLSCAASGSIFRYYALGWYRQAPGKERELVAAISSGTITNYADSVKGRFTISRDNAKNTVYLQMNSLKPEDTAVYYCAADTWYLGYPDYWLDYWGQGTQVTVSS", "polyreactivity (PSR sort gate)": "low polyreactivity"}, {"sequence": "QVQIVESGGGLVQAGGSLRLSCAASGSIFSYYAMGWYRQAPGKERELVAGITGGGSTDYADSVKGRFTISRDNAKITVYLQMISLKPEDTAVYYCSTDGKPSFYSFDYCGQGTQVTVSS", "polyreactivity (PSR sort gate)": "low polyreactivity"}, {"sequence": "QVQIVESGGGLVQAGGSLRLSCAASGSIFTYNAMGWYRQAPGKERELVAAISYSGVRTYYADSVKGRFTISRDNAKNTVYLQMNSLKPEDTAVYYCNTRYPYSVLKYGYWGQGTQVTVSS", "polyreactivity (PSR sort gate)": "high polyreactivity"}, {"sequence": "QVQIVESGGGLVQAGGSLRLSCAASGSIFYYYAMGWYRQAPGKERELVAAITRSGGSTYYADSVKGRFTISRDNEKNTVYLQMNSLKPEDTAVYYCAKDAHAYRDLDYWGQGTQVTVSS", "polyreactivity (PSR sort gate)": "low polyreactivity"}, {"sequence": "QVQIVESGGGLVQAGGSLRLSCAASGSIIYRNAMGWYRQAPGKERELVAAIRTSSGSTYYAVSVKGRFTISRDNAKNTVYLQMNSLKPVDTAVYYCGAPRLYGYYSCGQGTQVTVSS", "polyreactivity (PSR sort gate)": "low polyreactivity"}, {"sequence": "QVQIVESGGGLVQAGGSLRLSCAASGSILIPYAMGWYRQAPGKERELVAAISRTTRTYYADSVKGRFTISRDNAKNTVYLQMNCLKPEDTAVYYCAADRVYPYFRYGFWGQGTKVTVSS", "polyreactivity (PSR sort gate)": "high polyreactivity"}, {"sequence": "QVQIVESGGGLVQAGGSLRLSCAASGSTFEVNAMGWYRQAPGKERELVAVITSGGSTNYADSVKGPFTISRDNAKNTVYLQMNSLKPEDTAVYYCAKDSRTLEDYWGQGTQVTVSS", "polyreactivity (PSR sort gate)": "low polyreactivity"}, {"sequence": "QVQIVESGGGLVQAGGSLRLSCAASGSTFGSNAMGWYRQAPGKERELGAAISWTGGSTYYADSVKGRFTISRDNAKNTVYLQLNSLKPEDTAVYYCNKRIAESDTTVTYDYWGQGTQVNVSS", "polyreactivity (PSR sort gate)": "low polyreactivity"}, {"sequence": "QVQIVESGGGLVQAGGSLRLSCAASGSTFNYNAMGWYRQAPGKERELVAAITFTGGSTYADSVKGRFTISRDNAKNTVYLQMNSLKPEDTAVYYCAATIQGHDYLGTGYDYWGQGTQVTVSS", "polyreactivity (PSR sort gate)": "low polyreactivity"}, {"sequence": "QVQIVESGGGLVQAGGSLRLSCAASGSTFQCYAMGWYRQAPGKERQLVAAINKSGGTTYYADSVKGRFTISRDNAKNTVYLQMNSLNPEDTAVYSCATDNPVVYQPCNMDYWGQGTQVTVSS", "polyreactivity (PSR sort gate)": "low polyreactivity"}, {"sequence": "QVQIVESGGGLVQAGGSLRLSCAASGSTFVVYAMGWYRQAPGKERELVAAISYRAGITYYADSVKGRFTISRDNAKNTVYLQMNSLKPEDTAVYYCAADRYYGVGSGYWGQGTQVTVSS", "polyreactivity (PSR sort gate)": "high polyreactivity"}, {"sequence": "QVQIVESGGGLVQAGGSLRLSCAAYGSIFQPYAMGWYRQAPGKERELVAAITNGGSTYYADSVKGRFTISRDNAKNTVYLQMNSLKPEDTGVYYCAADVQSSHEYDYWGKGTQVTVSS", "polyreactivity (PSR sort gate)": "low polyreactivity"}, {"sequence": "QVQIVESGGGLVQAGGSLRLSCAAYGSIFRLYAMGWYRQAPGKERDFVARIRWRGGSTNYPDSVKASFTISRDNAKNTVFVQMNSQKTVDTAVYYCAAKQGTVRAHTFVPWYDYWGQGTQVSVSS", "polyreactivity (PSR sort gate)": "high polyreactivity"}, {"sequence": "QVQIVESGGGLVQAGGSLRLSCADSGGTFRRYAMGWYRQAPGKEREFVARIYDGGTTYYADSVKGRFTISRDNAKNTVYLQMNSLKPEDTAVYYCAAYPYSRYYYYSNYYWGQGTQVTVSS", "polyreactivity (PSR sort gate)": "high polyreactivity"}, {"sequence": "QVQIVESGGGLVQAGGSLRLSCDASGSTFVRYAMGWYRQAHGKERELVAAISYRGGSTYYADSVKGRFTISRDNAKNTVYLQMNSLKPEDTAVYYCAAESRHVEGEYWGQGTQVTVSS", "polyreactivity (PSR sort gate)": "high polyreactivity"}, {"sequence": "QVQIVESGGGLVQAGGSLRLSCSASGRIFVGNAMGWYRQAPGKERELVAAISQRGGSTYYADSVKGRFTISRDYAKNTVYFQMNSRKQDVTAVYSCNAACRRAATSIWSWYDHWGQGTQETVSS", "polyreactivity (PSR sort gate)": "low polyreactivity"}, {"sequence": "QVQIVESGGGLVQAGGSLRLSFAASGSIFSYNSMGWYRQAPGRERELVAAITPGCTSYYADSVKGLFRISRDNAKNTVYIQMNSLTPEDTAVYYCAADGLSRDTLYPYDYWGQGSQVTVSS", "polyreactivity (PSR sort gate)": "low polyreactivity"}, {"sequence": "QVQIVESGGGLVQAGGSLSLSCAASGYNFYSYAMGWYRQAPGTKRELVAAITNSGGSTYYADSVKGRFTISRDNAKNTVYLQMNSLKPEDTAVYSCNASYWRAYSYKYDYWGQGTQVTVSS", "polyreactivity (PSR sort gate)": "high polyreactivity"}, {"sequence": "QVQIVESGGGLVQAGGSRRLSCAASGIIFYVNVMGWYRQAPGKERELVASNDGSGDTTYYADSVKGRFTISRDNAKNTVYLQMNSLKPEDTAVYYCAADKYSFWSYYPDDDYIYDYWGQGNQVTVSS", "polyreactivity (PSR sort gate)": "low polyreactivity"}, {"sequence": "QVQIVESGGGLVQEGGSLRISCAASGIIFRRYAMGWYRQAPGKERELVATITRSGSTNYAESVKGRFTISRDNAKNSVYLQMNSLKPEDTAVYYCNADDIRGGVGYDYWGQGTQVTVSS", "polyreactivity (PSR sort gate)": "high polyreactivity"}, {"sequence": "QVQIVESGGGLVQEGGSLRLSCAASGFIFRRNAMGWYRQAPGKERELVAAISSRGGTTHYADSVKGRFTISRDNAKNTVYLQMNSLKPEDSSVYYCATTPQRGGLGGVDYWGQGTQVTVSS", "polyreactivity (PSR sort gate)": "high polyreactivity"}, {"sequence": "QVQIVESGGGVVQAGGSLRLSCAASGYILDRNSMGWYRQAPGKERELVAVISWGGTRTYYADSVKGRFTISRDNAKNTVSLQMNSLKPVDTAVYYCNGKGWYYKYDYWGQGTQVTVSS", "polyreactivity (PSR sort gate)": "high polyreactivity"}, {"sequence": "QVQIVESGGRLVQAGGSLRLSCAASGNIFRYNAMGWYRQAPGKERELVAAITLSGGDTYYADSVKGRFTISRDNAKNIVYLQMNSLKPEDTAVYYCAKDPRSDYTDGMNYWGQGTQLTVSS", "polyreactivity (PSR sort gate)": "low polyreactivity"}, {"sequence": "QVQIVESGGVLVQAGGSIRLSCDASGSLFTIYAMGCYRQAPGKERELVAAITWSGGSTYYADSVKGRYTISRDNAKNTVNLQMNSLKPEDTAVYYCAADAYTGDIPYWWPWNNEYDYWGQGTQVTLSS", "polyreactivity (PSR sort gate)": "low polyreactivity"}, {"sequence": "QVQIVESGRGLVQAGGSLRLSCAPSGFNIPTNGMGWYRQATGKEREFVASITWRGGGTYYAESVKGRFTISRDNAKNTVFLQMNSLKPEDTAVYYCAAGRSWSSYWKYDYWGLGTQVTVSS", "polyreactivity (PSR sort gate)": "low polyreactivity"}, {"sequence": "QVQIVESGRGLVQAGGSLRVSCAASGRTFTYNAMGWYRQAPGKERELVAAINGDGGSTYYADSVKVRFTISRDNAKNTVYLQMNSLKPEDTAVYYCNRPRIYRYGYWGQGTQVTVSS", "polyreactivity (PSR sort gate)": "high polyreactivity"}, {"sequence": "QVQIVESRGGLVQAGGSLRLSCSASGRTFTYYAMGWYRQAPGKERELVASITSGGSTYADSVKGRFTISRDNAMNTVYLQMNSLKPEDTAVYYCAARAWGYRYKYYWGQGTLVTVSS", "polyreactivity (PSR sort gate)": "high polyreactivity"}, {"sequence": "QVQIVESVGCLVQARGSLRLSSAASGFILVINAMGWYRQAPGKERELVAAINGGDITNYADSVKGRFTFSRDNAKNNVYLQMNSLKPEDTAVYYCSADGEDSLWTGYDYDYWGLGTQVTVSS", "polyreactivity (PSR sort gate)": "low polyreactivity"}, {"sequence": "QVQIVESVGGLVQAGGSLRLSCAASGSTFSGYAKGWYRQAPGKERELVAAISWRGVRTYYADSVKGRFTISRDNAKNTVYLQMNSLKPEDTAVYYCAAVRYIPKEFYWGQGTQVTVSS", "polyreactivity (PSR sort gate)": "high polyreactivity"}, {"sequence": "QVQIVESWGGLVQAGGSLRVSCATSGGIFRFNAMGSYRHAPGKERELVAAITSSVGSTYYADSVKGRFTFSRDNAKNTVDLQLNSLKPEDTAVDDCAAVITRVAIVFSTEYDYWGQGTQVTVSS", "polyreactivity (PSR sort gate)": "low polyreactivity"}, {"sequence": "QVQIVETGGVLVQAGGSLRLSFADAGLTIYIYAMGWYRQAPGKETELFPAISWIGDSTYYADSVKGLFTISRDNAKNTVYLQLNSLKPEDTAVYYCAADSWRYVAEGLWREYDYWGQGTQVTVSS", "polyreactivity (PSR sort gate)": "low polyreactivity"}, {"sequence": "QVQLAESGGGLVQAGGSLRLSCAASGIIFVYNAMGWYIKAPGKERELVAVISFIGDSTYYADSVKGRFTISRDNAKNTVYLQMNSLKPEDTAVYYCAADYYMPYWFFVGYDYWGQGTQVTVSS", "polyreactivity (PSR sort gate)": "low polyreactivity"}, {"sequence": "QVQLAESGGGLVQAGGSLRLSCAASGRTFSQYGMGWYRQAPGKERELVARIRRSGGSTYYADSVKGRFTISRDNAKNTVYLQMNSLKPEDTAVYYCAARYYWFGQYQYNYWGQGTQVTVSS", "polyreactivity (PSR sort gate)": "high polyreactivity"}, {"sequence": "QVQLAESGGGLVQAGGSLRLSCAASGRTFSQYGMGWYRQAPGKERELVARIRRSGGSTYYADSVKGRFTISRDNAKNTVYLQMNSLKPEDTAVYYCNADGQPYTRYGYWGQGTRVTVSS", "polyreactivity (PSR sort gate)": "high polyreactivity"}, {"sequence": "QVQLAESGGGLVQAGGSLRLSCGASGSTFVAYALGWYRQAPGKEREFVAAISRSGGSTHYADSVKGRFTISRDNAKNTVYLQMNRLNPEDTAVYYCAARVYGYGGRTYEYWGQGTQVTVSS", "polyreactivity (PSR sort gate)": "high polyreactivity"}, {"sequence": "QVQLDESGGGLVQAGGSHRLSCAASGYIFGYYAMGWSRQAPGKERELVAAISKSGTDTYYADSVKGRFTISRDYAKNTVFLQMNSLKPEDTAVYYCNALLRGYSYGYDYWGQGTQVTVSS", "polyreactivity (PSR sort gate)": "high polyreactivity"}, {"sequence": "QVQLEDSGGGLVQAGGSLRLICAASGSILNYKAMGWYRHAPGKERELVAGIRSSGGSTYYADSVKGRFTISRDNAKNTVYLKMNSLKPEDTAVYDWAKRTYWRRGWGFDFWGQGTQVTVSS", "polyreactivity (PSR sort gate)": "high polyreactivity"}, {"sequence": "QVQLEDSGGGLVQAGGSLRLSCAASGFIFRGYGMGWYRQAPGKERELLASITTGGRTNYADSVKGRFTISRDNAKNTVYLQMNCLKPEDTAVYYCAATYYLRLRRPYWQGFNYWGQGTQVTVSS", "polyreactivity (PSR sort gate)": "high polyreactivity"}, {"sequence": "QVQLEDSGGGLVQAGGSLRLSCAASGRTFVFKAMGWYRPAPGKERELVAAITISGGSTYYADSVKGRFTISRDNAKNTVYLQMNSLKPEDTAVYSCNADSKIEVFSYIYDYWGQGTQVTVSS", "polyreactivity (PSR sort gate)": "high polyreactivity"}, {"sequence": "QVQLEDSGGGLVQAGGSLRLSCAASGSIFRRNFMGWNRQAPGKERELVAAISWSGDRTYYADSVKGRFTISRDNAKNTVYLQMNSLKPEDTAVYYCNAVYWPYRYDYWGQGTQVTVSS", "polyreactivity (PSR sort gate)": "high polyreactivity"}]}]}
